“And” between values parts separate entries of the source, which are not always exact repeats. Identical values can stand only once.
Biological target: GST-LEDGF PWWP (1–100) (UniProt O75475)
Assay: pull-down

GST-LEDGF PWWP (1–100), sequence (O75475 1-100): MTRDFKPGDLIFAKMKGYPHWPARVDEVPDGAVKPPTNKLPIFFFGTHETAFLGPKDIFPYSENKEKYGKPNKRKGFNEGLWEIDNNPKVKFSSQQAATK

- Kd: 0.232 µM and 0.102 µM
Substance: native mononucleosomes (MNs) from SupT1 cells (from UniProt P0C0S8;P62807;P68431;P62805) (complex)

From publication PMC3616739
